From PMC11295067 come the findings set out here.

Assay [1] has as its target human Gi heterotrimer (human) (UniProt P63096).
Assay [2] deals with human Gq heterotrimer (human) (UniProt P50148).
human Gq heterotrimer (human), sequence (P50148 whole entry, looked up, one chain of several): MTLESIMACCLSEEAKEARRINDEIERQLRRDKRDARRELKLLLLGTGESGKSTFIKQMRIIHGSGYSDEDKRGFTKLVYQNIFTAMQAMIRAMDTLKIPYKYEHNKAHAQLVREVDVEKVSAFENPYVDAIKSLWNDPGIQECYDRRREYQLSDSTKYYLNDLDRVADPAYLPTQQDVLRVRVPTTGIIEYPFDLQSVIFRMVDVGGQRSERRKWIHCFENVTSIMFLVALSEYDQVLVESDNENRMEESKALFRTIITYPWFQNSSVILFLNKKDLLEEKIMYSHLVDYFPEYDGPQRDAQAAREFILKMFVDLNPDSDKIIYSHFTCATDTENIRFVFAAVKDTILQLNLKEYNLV

human Gi heterotrimer (human), sequence (P63096 whole entry, looked up, one chain of several): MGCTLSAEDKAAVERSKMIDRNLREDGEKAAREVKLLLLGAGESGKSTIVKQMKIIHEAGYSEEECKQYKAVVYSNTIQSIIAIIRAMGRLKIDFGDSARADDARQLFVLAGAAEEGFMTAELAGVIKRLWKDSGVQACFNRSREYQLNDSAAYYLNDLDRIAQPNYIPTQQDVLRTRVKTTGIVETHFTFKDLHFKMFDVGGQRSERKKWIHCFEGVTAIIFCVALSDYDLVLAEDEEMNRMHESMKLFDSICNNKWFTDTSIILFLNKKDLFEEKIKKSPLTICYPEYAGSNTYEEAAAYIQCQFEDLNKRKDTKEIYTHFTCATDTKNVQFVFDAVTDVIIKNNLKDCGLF

In assay [1], “Jumping Spider Rhodopsin-1 (JSR1) reconstituted with 9-cis retinal (receptor)” displayed a GTPase-Glo assay: GTP depletion by Gi heterotrimer with JSR1/9-cis retinal, after illumination of 92% and a GTPase-Glo assay: GTP depletion by Gi heterotrimer with JSR1/9-cis retinal, without illumination of 57%. Also, in assay [2], the GTPase-Glo assay: GTP depletion by Gq heterotrimer with JSR1/9-cis retinal, after illumination came out at 44% and the GTPase-Glo assay: GTP depletion by Gq heterotrimer with JSR1/9-cis retinal, without illumination is 7%.
